Source: article PMC4749977, “Alp7/TACC-Alp14/TOG generates long-lived, fast-growing MTs by an unconventional mechanism” (Scientific Reports, 2016)

How the values were obtained:
[1] = target: S. pombe dual-isoform (α1β + α2β) tubulin (S. pombe) (UniProt P04688); experiment: DIC video microscopy of microtubule growth; addition of GTP-tubulin to plus and minus ends of MTs nucleated by axoneme fragments; growth rate against tubulin concentration, linear regression, apparent rate constants; 100 mM K-PIPES, 1 mM MgSO4, 2 mM EGTA, 1 mM DTT pH 6.9, 1 mM GTP, no glycerol, 25 °C
[2] = target: the molecule itself; experiment: glycerol gradient centrifugation; 5-40% glycerol gradient of purified Alp14, Alp7 and tubulin, alone or mixed; tubulin as GTP-tubulin where stated; fractions on SDS-PAGE with Coomassie staining
[3] = target: the molecule itself; experiment: microtubule growth rates (VE-DIC video microscopy) against tubulin concentration, fit of a bimolecular reaction; GTP-tubulin dimer adding to and leaving the microtubule plus end; single isoform S. pombe tubulin in PEM at 25 °C, without Alp14; apparent rate constants per microtubule end in dimers

S. pombe dual-isoform (α1β + α2β) tubulin (from UniProt P04688 1-455; P04689 1-449; P05219 1-448) (complex)
Kd = koff/kon (critical concentration), minus end [1]: 1900 nM | Kd = koff/kon (critical concentration), plus end [1]: 2000 nM | koff, minus end [1]: 3.1 nm/s | koff, plus end [1]: 9.3 nm/s | kon, minus end (nm s^−1 μM^−1) [1]: 1.6 | kon, plus end (nm s^−1 μM^−1) [1]: 4.7

B1: Alp14, full length, with a C-terminal his or Avi tag (natural protein, S. pombe, UniProt O94534 1-809, looked up)
chain: MSQDQEEDYSKLPLESRIVHKVWKVRLSAYEECSKSFSLSADGSDNCFELWNNQSELWKSVLTDSNVAAQEAGTAAFVAYCRFSDPSHLLKAREISVLSISEKCLTSPRAGTRENALEALMLLVEADSAAPVIESIIPSLSARSPKVIASNVAAIASLVEQFGAKVIPSKMIIPHISNLFGHADKNVRKEASRLTVNIYRWTGDPLKDLLFKDLRPVQTKELESLFAELPTEPPKQTRFLKSQQPTSEPNVETQVEEQPALENEESEPEPSDDQFDLVEEVDVLPNVDPNLETLMASSKWKDRKEALDKLLPVLSQPKIKDNDFFNLVAILTKSVSKDANIMVVINAAHCIQAMAKGLRSNFSKYASTSINALLERSKEKKANVIESLSSAMDAVLATSSLDDLAELIASFAGNKNPQIKSSCFSLFSRSFSNMTSLPSKFTVDTCAKACVPGVSDTFEPVRSAAAEALGVLMKLVGERAINQYLSPLDDIRKSKIRSFYETATVKAKAPTKKSKVKPSKQEESKVVVPSNAKAVKKSVVPSSPVVPSPRKATNKSLSMDVSKGNAFENGPLLPRPTTRPVSRGLSRGTSSSLQQKVKASTPLNSGALNETVQNLKNMELDDPAPQPAKHSRVDRYEHPKVLEDNDSTISSLESLKRENEELREQLKVEHEENISMQKQLSELKGELNTLRSARKASPIGDRKPAFMRRANTDFLELSTSPSFQRSVREFEPTRPKLYSSIDVNQRSPLASAKTNGNFTFHAELPRSPFSSRANNINPDWTKAIDLAAKLKQKITEMKQTDQRHQGLIH
notes: Alp14, TOG-family microtubule polymerase of S. pombe, full length; gene PCR-amplified from wild-type genomic S. pombe DNA; also called Alp14/TOG; full length Alp14
binding result [2]: binds

B2: Alp7, full length, with an N-terminal avi-tag (natural protein, S. pombe, UniProt Q9URY2 1-474, looked up)
chain: MSDIVSSSTDYSRRSPSSSSIGTNETDHTGFHEKRQGASSESLIPPAQRSSEESMPAPKLFPKLTSKPNPQLNLKDTLNKRVSDRLQALELNKSFDFSGTPRPMHPISHPLSQHKTPEFKHRKRNVESILTPKNPSLFSSSNAASQRGSLNTAPSNFAYSHSSSLQTSASSRPPVLSNGSFPRQTNTAPLNPPVHLKDNIRNSATPSTSQADIPTQYPINSTQKQQAKYEAEIEGYKAKLAGTYHEISVLQNTIVNVSGQLIAVNDQLQQLRSGKASTSPSTKDTNMRLVEGHNEETLALQRGKYTQEEVDKLIQERMEKVAEDLHAQYSAKHTQKINAFKANYARKYEATIQELQNQIGTAPNAPKISNSNWEEERRALKADNQTLQKQLEKAIQERQDMSDFLNNFKADMAKSDKLLMQQQSQQTGDLETLRLQLQALQEELRVEREERQQLIQMSEDLVIAMDQLNLEQKS
modifications: biotin on the AviTag (BirA ligase co-expressed to ensure biotinylation)
notes: Alp7 (Mia1p), TACC-family protein of S. pombe, full length; gene PCR-amplified from wild-type genomic S. pombe DNA; also called Alp7/TACC; Mia1p; source: Sf9 insect cells (baculovirus, BirA ligase co-expressed), purified on monomeric avidin agarose
binding result [2]: binds

B3: S. pombe single isoform (α1β) tubulin (complex)
chain 1: MREVISVHVGQAGVQIGNACWELYCLEHGIGPDGFPTENSEVHKNNSYLNDGFGTFFSETGQGKFVPRSIYVDLEPNVIDQVRTGPYKDLFHPEQMVTGKEDASNNYARGHYTVGKEMIDSVLERIRRMADNCSGLQGFLVFHSFGGGTGSGLGALLLERLNMEYGKKSNLQFSVYPAPQVSTSVVEPYNSVLTTHATLDNSDCTFMVDNEACYDICRRNLDIERPTYENLNRLIAQVVSSITASLRFAGSLNVDLNEFQTNLVPYPRIHFPLVTYSPIVSAAKAFHESNSVQEITNQCFEPYNQMVKCDPRTGRYMATCLLYRGDVIPRDVQAAVTSIKSRRTIQFVDWCPTGFKIGICYEPPQHVPGSGIAKVNRAVCMLSNTTSIAEAWSRLDHKFDLMYSKRAFVHWYVGEGMEEGEFSEAREDLAALERDYEEVGQDSMDNEMYEADEEY
chain 2: MREIVHIQAGQCGNQVGAAFWSTIADEHGLDSAGIYHGTSEAQHERLNVYFNEAAGGKYVPRAVLVDLEPGTMDAVKSGKFGNLFRPDNIIYGQSGAGNIWAKGHYTEGAELADAVLDVVRREAEACDALQGFQLTHSLGGGTGSGMGTLLLSKIREEYPDRMMATFSVAPAPKSSDTVVEPYNATLSMHQLVENSDETFCIDNEALSSIFANTLKIKSPSYDDLNHLVSAVMAGVTTSFRFPGELNSDLRKLAVNMVPFPRLHFFMVGFAPLAAIGSSSFQAVSVPELTQQMFDANNMMVAADPRHGRYLTVAALFRGKVSMKEVDEQIRSVQTKNSAYFVEWIPDNVLKAVCSVPPKDLKMSATFIGNSTSIQEIFRRLGDQFSAMFRRKAFLHWYTGEGMDEMEFTEAESNMNDLVSEYQQYQEAGIDEGDEDYEIEEEKEPLEY
notes: alpha-1 tubulin (α1) of S. pombe, from strain mmsp174 (atb2 replaced by nda2+); beta tubulin (β) of S. pombe, from strain mmsp174; Stands both as the free GTP-tubulin heterodimer and as the growing plus end of the microtubule polymerised from it; which of the two is meant is told in the assay's format and the quantity; also called GTP-tubulin; T (tubulin dimer); source: purified from S. pombe …
koff [3]: 6.6 s⁻¹ | kon [3]: 5.5e+06 M⁻¹ s⁻¹
